Laboratory results from patent US20250002588A1.

Biological target: ALK-1/BMPR-2 receptor pair of the PathHunter U2Os dimerization cells (DiscoverX 93-0962C3) (UniProt P37023)
Assay: cell-based or functional assay

Chain of ALK-1/BMPR-2 receptor pair of the PathHunter U2Os dimerization cells (DiscoverX 93-0962C3) (P37023 22-503, chain 1 of 2): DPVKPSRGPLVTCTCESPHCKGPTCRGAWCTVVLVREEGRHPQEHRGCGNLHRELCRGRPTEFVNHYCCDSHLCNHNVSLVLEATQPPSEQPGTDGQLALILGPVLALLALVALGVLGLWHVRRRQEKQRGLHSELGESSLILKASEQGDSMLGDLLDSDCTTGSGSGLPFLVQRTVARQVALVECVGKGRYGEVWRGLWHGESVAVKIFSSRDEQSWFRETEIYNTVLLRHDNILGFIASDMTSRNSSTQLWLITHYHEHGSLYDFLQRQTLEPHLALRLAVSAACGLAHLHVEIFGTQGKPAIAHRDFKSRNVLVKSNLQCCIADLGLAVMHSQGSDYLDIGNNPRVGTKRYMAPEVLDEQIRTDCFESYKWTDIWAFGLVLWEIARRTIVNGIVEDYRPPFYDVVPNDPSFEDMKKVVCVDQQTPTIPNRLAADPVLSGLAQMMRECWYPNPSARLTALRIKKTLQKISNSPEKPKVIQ
Chain of ALK-1/BMPR-2 receptor pair of the PathHunter U2Os dimerization cells (DiscoverX 93-0962C3) (Q13873 27-1038, chain 2 of 2, further chain): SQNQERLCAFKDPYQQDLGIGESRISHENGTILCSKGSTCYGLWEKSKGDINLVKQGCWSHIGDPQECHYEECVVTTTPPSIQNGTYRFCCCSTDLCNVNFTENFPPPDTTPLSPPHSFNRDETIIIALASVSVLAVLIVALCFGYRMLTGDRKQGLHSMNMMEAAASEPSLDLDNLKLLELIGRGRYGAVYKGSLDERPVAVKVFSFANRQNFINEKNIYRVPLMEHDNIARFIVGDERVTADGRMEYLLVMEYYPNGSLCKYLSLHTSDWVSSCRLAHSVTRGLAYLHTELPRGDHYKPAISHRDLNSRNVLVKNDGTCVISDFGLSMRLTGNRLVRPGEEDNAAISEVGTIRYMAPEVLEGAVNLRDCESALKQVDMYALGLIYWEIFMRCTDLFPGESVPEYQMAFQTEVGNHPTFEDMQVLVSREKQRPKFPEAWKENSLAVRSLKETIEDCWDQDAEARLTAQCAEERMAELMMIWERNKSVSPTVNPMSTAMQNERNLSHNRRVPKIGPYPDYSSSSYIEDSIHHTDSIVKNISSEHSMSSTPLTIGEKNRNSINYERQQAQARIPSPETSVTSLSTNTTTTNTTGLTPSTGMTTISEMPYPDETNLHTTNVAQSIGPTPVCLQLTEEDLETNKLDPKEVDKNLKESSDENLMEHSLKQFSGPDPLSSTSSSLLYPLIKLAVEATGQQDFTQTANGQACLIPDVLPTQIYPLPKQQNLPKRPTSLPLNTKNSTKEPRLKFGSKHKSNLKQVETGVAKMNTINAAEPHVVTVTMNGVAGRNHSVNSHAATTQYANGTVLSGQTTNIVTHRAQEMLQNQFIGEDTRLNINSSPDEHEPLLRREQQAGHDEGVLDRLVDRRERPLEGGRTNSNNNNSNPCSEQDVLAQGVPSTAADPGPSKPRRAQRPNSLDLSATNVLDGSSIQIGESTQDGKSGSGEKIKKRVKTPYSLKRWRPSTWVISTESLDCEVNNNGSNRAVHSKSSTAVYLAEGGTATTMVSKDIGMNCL

B1: BMP9 (ligand, UniProt Q9UK05 320-429, looked up)
chain: SAGAGSHCQKTSLRVNFEDIGWDSWIIAPKEYEAYECKGGCFFPLADDVTPTKHAIVQTLVHLKFPTKVGKACCVPTKLSPISVLYKDDMGVPTLKYHYEGMSVAECGCR
% Emax BMP9: 100%
EC50: 0.02 nM
EMAX (RLU): 2.64e+06 RLU

B2: BMP10 (ligand, UniProt O95393 317-424, looked up)
chain: NAKGNYCKRTPLYIDFKEIGWDSWIIAPPGYEAYECRGVCNYPLAEHLTPTKHAIIQALVHLKNSQKASKACCVPTKLEPISILYLDKGVVTYKFKYEGMAVSECGCR
% Emax BMP9: 97%
EC50: 0.1 nM
EMAX (RLU): 2.57e+06 RLU
